# Measurements taken from US20110086015.
# Columns and labels:
# [1] = system: OZ142 CF877R zinc finger array (synthetic); assay: one_hybrid; conditions: bacterial two-hybrid lacZ; SD 0.16
# [2] = system: OZ132 CF877R zinc finger array (synthetic); assay: one_hybrid; conditions: bacterial two-hybrid lacZ; SD 0.05
# [3] = system: OZ124 CF877R zinc finger array (synthetic); assay: one_hybrid; conditions: bacterial two-hybrid lacZ; SD 0.20
# [4] = system: OZ127 CF877R zinc finger array (synthetic); assay: one_hybrid; conditions: bacterial two-hybrid lacZ; SD 0.02
# [5] = system: OZ129 CF877R zinc finger array (synthetic); assay: one_hybrid; conditions: bacterial two-hybrid lacZ; SD 0.07
# [6] = system: OZ121 CF877R zinc finger array (synthetic); assay: one_hybrid; conditions: bacterial two-hybrid lacZ; SD 0.19
# [7] = system: OZ120 CF877R zinc finger array (synthetic); assay: one_hybrid; conditions: bacterial two-hybrid lacZ; SD 0.01
# [8] = system: OZ122 CF877R zinc finger array (synthetic); assay: one_hybrid; conditions: bacterial two-hybrid lacZ; SD 0.59
# [9] = system: OZ141 CF877R zinc finger array (synthetic); assay: one_hybrid; conditions: bacterial two-hybrid lacZ; SD 0.08
# [10] = system: OZ136 CF877R zinc finger array (synthetic); assay: one_hybrid; conditions: bacterial two-hybrid lacZ; SD 0.06
# [11] = system: OZ139 CF877R zinc finger array (synthetic); assay: one_hybrid; conditions: bacterial two-hybrid lacZ; SD 0.03
# [12] = system: OZ137 CF877R zinc finger array (synthetic); assay: one_hybrid; conditions: bacterial two-hybrid lacZ; SD 0.04
# [13] = system: OZ123 CF877R zinc finger array (synthetic); assay: one_hybrid; conditions: bacterial two-hybrid lacZ; SD 0.63
# [14] = system: OZ119 CF877R zinc finger array (synthetic); assay: one_hybrid; conditions: bacterial two-hybrid lacZ; SD 0.35; site triplets appear printed in F1-F2-F3 order, so 5'-3' triplet order may be reversed
# [15] = system: OZ134 CF877R zinc finger array (synthetic); assay: one_hybrid; conditions: bacterial two-hybrid lacZ; SD 0.19
# [16] = system: OZ128 CF877R zinc finger array (synthetic); assay: one_hybrid; conditions: bacterial two-hybrid lacZ; SD 0.07
# [17] = system: OZ135 CF877R zinc finger array (synthetic); assay: one_hybrid; conditions: bacterial two-hybrid lacZ; SD 0.07
# [18] = system: OZ133 CF877R zinc finger array (synthetic); assay: one_hybrid; conditions: bacterial two-hybrid lacZ; SD 0.05
# [19] = system: OZ138 CF877R zinc finger array (synthetic); assay: one_hybrid; conditions: bacterial two-hybrid lacZ; SD 0.41
# [20] = system: OZ126 CF877R zinc finger array (synthetic); assay: one_hybrid; conditions: bacterial two-hybrid lacZ; SD 0.28
# [21] = system: OZ125 CF877R zinc finger array (synthetic); assay: one_hybrid; conditions: bacterial two-hybrid lacZ; SD 0.85
# [22] = system: OZ140 CF877R zinc finger array (synthetic); assay: one_hybrid; conditions: bacterial two-hybrid lacZ; SD 0.48
# [23] = system: OZ130 CF877R zinc finger array (synthetic); assay: one_hybrid; conditions: bacterial two-hybrid lacZ; SD 0.22
# [24] = system: OZ131 CF877R zinc finger array (synthetic); assay: one_hybrid; conditions: bacterial two-hybrid lacZ; SD 0.12
# [25] = system: OZ109 CF877L zinc finger array (synthetic); assay: one_hybrid; conditions: bacterial two-hybrid lacZ; SD 0.20
# [26] = system: OZ118 CF877L zinc finger array (synthetic); assay: one_hybrid; conditions: bacterial two-hybrid lacZ; SD 0.08
# [27] = system: OZ107 CF877L zinc finger array (synthetic); assay: one_hybrid; conditions: bacterial two-hybrid lacZ; SD 0.58; site triplets appear printed in F1-F2-F3 order, so 5'-3' triplet order may be reversed
# [28] = system: OZ114 CF877L zinc finger array (synthetic); assay: one_hybrid; conditions: bacterial two-hybrid lacZ; SD 0.18
# [29] = system: OZ111 CF877L zinc finger array (synthetic); assay: one_hybrid; conditions: bacterial two-hybrid lacZ; SD 1.90
# [30] = system: OZ115 CF877L zinc finger array (synthetic); assay: one_hybrid; conditions: bacterial two-hybrid lacZ; SD 0.12
# [31] = system: OZ116 CF877L zinc finger array (synthetic); assay: one_hybrid; conditions: bacterial two-hybrid lacZ; SD 0.38
# [32] = system: OZ110 CF877L zinc finger array (synthetic); assay: one_hybrid; conditions: bacterial two-hybrid lacZ; SD 0.15
# [33] = system: OZ117 CF877L zinc finger array (synthetic); assay: one_hybrid; conditions: bacterial two-hybrid lacZ; SD 0.33
# [34] = system: OZ112 CF877L zinc finger array (synthetic); assay: one_hybrid; conditions: bacterial two-hybrid lacZ; SD 0.55
# [35] = system: OZ113 CF877L zinc finger array (synthetic); assay: one_hybrid; conditions: bacterial two-hybrid lacZ; SD 0.20
# [36] = system: OZ108 CF877L zinc finger array (synthetic); assay: one_hybrid; conditions: bacterial two-hybrid lacZ; SD 0.51
# [37] = system: T1, CF877 left ZFN (synthetic); assay: cell_activity; conditions: as pair with right ZFN, K562 nucleofection; up to ~29% with adenovirus in CFBE41o-; exact clone of pair not stated
# T1 sequence: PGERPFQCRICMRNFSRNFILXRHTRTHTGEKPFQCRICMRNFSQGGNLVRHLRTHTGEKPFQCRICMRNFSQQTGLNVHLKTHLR
sequence,measurement,setting,value
GAGTGGTTA (double strand) [CF877R half-site],binding signal (fold activation),[1],2.73
same,binding signal (fold activation),[2],1.28
same,binding signal (fold activation),[3],4.41
same,binding signal (fold activation),[4],1.6
same,binding signal (fold activation),[5],2.55
same,binding signal (fold activation),[6],2.91
same,binding signal (fold activation),[7],2.53
same,binding signal (fold activation),[8],4.72
same,binding signal (fold activation),[9],2.87
same,binding signal (fold activation),[10],2.16
same,binding signal (fold activation),[11],2.74
same,binding signal (fold activation),[12],2.26
same,binding signal (fold activation),[13],5.03
same,binding signal (fold activation),[14],2.78
same,binding signal (fold activation),[15],3.71
same,binding signal (fold activation),[16],2.12
same,binding signal (fold activation),[17],2.25
same,binding signal (fold activation),[18],3.24
same,binding signal (fold activation),[19],2.52
same,binding signal (fold activation),[20],2.57
same,binding signal (fold activation),[21],4
same,binding signal (fold activation),[22],2.99
same,binding signal (fold activation),[23],2.47
same,binding signal (fold activation),[24],2.08
GTGGAATTA (double strand) [CF877L half-site],binding signal (fold activation),[25],2.83
same,binding signal (fold activation),[26],3.55
same,binding signal (fold activation),[27],1.92
same,binding signal (fold activation),[28],2.95
same,binding signal (fold activation),[29],2.2
same,binding signal (fold activation),[30],2.71
same,binding signal (fold activation),[31],2.53
same,binding signal (fold activation),[32],1.61
same,binding signal (fold activation),[33],3.87
same,binding signal (fold activation),[34],2.52
same,binding signal (fold activation),[35],1.61
same,binding signal (fold activation),[36],2.31
same,activity,[37],1.2 % indels
